Numbering of substitutions follows the chain as printed.
T1: Human PTGFRN-ECD (extracellular domain; amino-acid 26 to amino-acid Y at 832), His-tag protein (human, UniProt Q9P2B2 26-832)
T1 construct: range 26-832; Expressed in Hek-293 cells, purified on a nickel column; also called recombinant PTGFRN; not shown: His-tag
T1 sequence (looked up): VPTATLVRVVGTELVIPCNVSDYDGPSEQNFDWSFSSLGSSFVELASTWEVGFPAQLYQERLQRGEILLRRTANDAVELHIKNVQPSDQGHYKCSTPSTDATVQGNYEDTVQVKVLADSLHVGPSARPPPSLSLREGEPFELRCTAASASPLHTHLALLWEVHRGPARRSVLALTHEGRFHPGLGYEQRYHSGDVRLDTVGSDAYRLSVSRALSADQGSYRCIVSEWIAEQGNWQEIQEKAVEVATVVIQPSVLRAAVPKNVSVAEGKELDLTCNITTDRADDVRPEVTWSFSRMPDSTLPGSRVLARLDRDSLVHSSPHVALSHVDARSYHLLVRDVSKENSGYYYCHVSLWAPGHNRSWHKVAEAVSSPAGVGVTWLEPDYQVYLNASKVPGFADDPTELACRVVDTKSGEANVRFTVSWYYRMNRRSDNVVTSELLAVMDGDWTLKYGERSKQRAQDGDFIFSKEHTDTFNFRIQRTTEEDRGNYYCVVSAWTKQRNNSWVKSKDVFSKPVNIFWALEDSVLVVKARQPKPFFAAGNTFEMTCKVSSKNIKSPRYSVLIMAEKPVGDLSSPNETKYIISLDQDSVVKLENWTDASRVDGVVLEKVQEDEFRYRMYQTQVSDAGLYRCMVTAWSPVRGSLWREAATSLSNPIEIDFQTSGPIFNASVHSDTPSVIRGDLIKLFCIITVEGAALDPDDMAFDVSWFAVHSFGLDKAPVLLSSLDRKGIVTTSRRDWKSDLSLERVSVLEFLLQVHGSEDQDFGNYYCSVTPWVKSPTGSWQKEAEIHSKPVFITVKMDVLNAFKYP

B1: 1E2 (antibody, V domains shown)
VH: DVQLQESGPGLVKPSQSLSLTCSVTDYSITSGYYWNWIRQFPGNKLEWMGYISYDGSNNYNPSLKNRLSITRDTSKNQFFLKLNSVTPEDTATYYCARGWDYCFDYWGQGATLTVSS
VL: DIQMTQTTSSLSASLGDRVTISCSASQGISNYLNWYQQKPDGTVKLLIYYTSGLHSGVPSRFSGSGSGTDYSLTISNLEPEDIATYYCQQYSQLPWTFGGGTKLEIK
notes: Mouse hybridoma mAb
B2: 3E10 (antibody, V domains shown)
VH: EVHLVESGGDLVKPGGSLKLSCAASGFTFSSYGMSWVRQTPDKRLEWVASISSGGSHTYYPDRVKGRFTISRDNAKNTLYLQMSSLKSEDTAMYYCARHPSYYGSSLYCFDYWGQGTTLTVSS
VL: B1 VL with S24R, G28D, G53R, Y71F, P80Q, I83V, Y87F, Y91G, Q93T
B3: 10D9 (antibody, V domains shown)
VH: DVQLQESGPGLVKPSQSLSLTCSVTGCSITSGYDWNWIRQFPGNKLEWMGYINYDGNSNYIPSLKNRVSITRDTSKNQFFLKLNSVTTEDTATYYCARSDGYYWYFDVWGTGTTVTVSS
VL: DIKMTQSPSSMYASLGERVTITCKASQDIKSYLSWYQQKPWKSPKTLIYYATSLADGVPSRFSASGSGQDYSLTISSLESDDTATYYCLQHAERPLTFGAGTKLELK
notes: Mouse hybridoma mAb
B4: 9A9 (antibody, V domains shown)
VH: QVQLQQSGPELVKPGASVKLSCKASGYTFTTYDINWVKQRPGQGLEWIGWLYPRDGNTNYNEKFKGKASLTVDTSSSTAYMELHSLTSEDSAVYFCARDYYGSTYGYFDYWGQGTTLTVSS
VL: DIQMTQSPASLSASVGGTVTITCRASEKIYSYLAWYQQKQGKSPQLLVYDANTLAQGVPSRFSGSGSGTQFSLKINSLQPEDFGSYYCQHHYVTPLTFGAGTKLALK
notes: Mouse hybridoma mAb
B5: 33B7 (antibody, V domains shown)
VH: DVQLQESGPGLVKPSQSLSLTCSVTGCSITSGYYWNWIRQFPGNKLEWMGYISHDGNNNYSPSLKNRISITRDTSKNQFFLKLNSVTTEDTATYYCARGFYYYGYFGYWGQGTTLTVSS
VL: DIVMSQSPSSLAVSVGEKVTMSCKSSQSLLYSTNQKNYLAWYQQKPGQSPKPLIYWASTRESGVPDRFTGSGSGTDFTLTISSVKAEDLAVYYCQQYYSYRTFGGGTKLEIKR
notes: Murine hybridoma monoclonal IgG (ATCC PTA-124281); also called AG02; AGO2
B6: 6F6 (antibody, V domains shown)
VH: QVQLQQSGAELVKPGASVKVSCKASGYTFTTYWMHWVKQRPGQGLEWIGRIHPSDSDTNYNQKFKGKATLTLDKSSSTAYMQLSSLTSEDSAVYYCAMSLYYTMDYWGQGTSVTVSS
VL: DIQMTQSPSSLSASLGGKVTITCKASQDIKKYIAWYQHKPGKGPRLLIHYTSTLQPGIPSRFSGSGSGRDYSFSISNLEPEDIATYYCLQYDNLLYTFGGGTKLEIK
notes: Mouse hybridoma mAb
B7: 2B12 (antibody, V domains shown)
VH: QVQLQQPGAELVKPGASVKMSCKASGYTFTSYWITWVKQGPGQGLEWIGDIYPGSGNTNYNEKFKSKATLTVDTSSSTAYMQLSSLTSEDSAVYYCARFFILTSYYFDYWGQGTTLTVSS
VL: GIVMTQSQKFMSTTVGDRVSITCKASQNVGTAVAWFQQKPGQSPKLLIYLASNRYTGVPDRFTGSGSGTDFTLTISNMQSEDLADYFCQQYSNYPLTFGAGTKLELK
notes: Mouse hybridoma mAb

How the values were obtained:
[1] = biological target: T1, Human PTGFRN-ECD (extracellular domain; …); assay: BLI, Octet Red96, mAb on AMC sensor, PTGFRN-ECD 100 nM as analyte
Procedure: Antibody scouting/affinity based antibody ranking was performed to determine on/off rates and KD ranking of selected anti-PTGFRN mAbs using AMC sensor on forteBio Octet Red96 (FortéBio, Menlo Park, Calif.). PTGFRN-ECD, 100 nM, was used as the analyte.

[2] = biological target: T1, Human PTGFRN-ECD (extracellular domain; …); assay: Octet Red96 pairing (binning matrix) on PTGFRN-ECD; capture Ab (1st loading Ab): 7B4
[3] = biological target: T1, Human PTGFRN-ECD (extracellular domain; …); assay: Octet Red96 pairing (binning matrix) on PTGFRN-ECD; capture Ab (1st loading Ab): 9A9
[4] = biological target: T1, Human PTGFRN-ECD (extracellular domain; …); assay: Octet Red96 pairing (binning matrix) on PTGFRN-ECD; capture Ab (1st loading Ab): 9D8
[5] = biological target: T1, Human PTGFRN-ECD (extracellular domain; …); assay: Octet Red96 pairing (binning matrix) on PTGFRN-ECD; capture Ab (1st loading Ab): 9G8
[6] = biological target: T1, Human PTGFRN-ECD (extracellular domain; …); assay: Octet Red96 pairing (binning matrix) on PTGFRN-ECD; capture Ab (1st loading Ab): 10D9
[7] = biological target: T1, Human PTGFRN-ECD (extracellular domain; …); assay: Octet Red96 pairing (binning matrix) on PTGFRN-ECD; capture Ab (1st loading Ab): 10E6
[8] = biological target: T1, Human PTGFRN-ECD (extracellular domain; …); assay: Octet Red96 pairing (binning matrix) on PTGFRN-ECD; capture Ab (1st loading Ab): 2B12
[9] = biological target: T1, Human PTGFRN-ECD (extracellular domain; …); assay: Octet Red96 pairing (binning matrix) on PTGFRN-ECD; capture Ab (1st loading Ab): 33B7
[10] = biological target: T1, Human PTGFRN-ECD (extracellular domain; …); assay: Octet Red96 pairing (binning matrix) on PTGFRN-ECD; capture Ab (1st loading Ab): 4F4
[11] = biological target: T1, Human PTGFRN-ECD (extracellular domain; …); assay: Octet Red96 pairing (binning matrix) on PTGFRN-ECD; capture Ab (1st loading Ab): 6F6
[12] = biological target: T1, Human PTGFRN-ECD (extracellular domain; …); assay: Octet Red96 pairing (binning matrix) on PTGFRN-ECD; capture Ab (1st loading Ab): 1E2

Binder | Kd [1] [pM] | Response [1] | koff [1] [s⁻¹] | kon [1] [M⁻¹ s⁻¹] | Octet pairing response [2] | Octet pairing response [3] | Octet pairing response [4] | Octet pairing response [5] | Octet pairing response [6] | Octet pairing response [7] | Octet pairing response [8] | Octet pairing response [9] | Octet pairing response [10] | Octet pairing response [11] | Octet pairing response [12]
B1 | < 1 | 0.41 | < 1e-07 | 63800 | 0.157 | 0.27 | 0.184 | 0.215 | 0.24 | 0.306 | 0.23 | 0.185 |  |  | 
B2 | < 1 | 0.472 | < 1e-07 | 120000 | 0.12 | 0.224 | 0.199 | 0.124 | 0.219 | 0.305 | 0.251 | 0.252 | 0.112 | 0.0759 | 
B3 | < 1 | 0.342 | < 1e-07 | 85600 | 0.1 | 0.226 | 0.186 | 0.142 |  | 0.329 | 0.18 | 0.236 |  | 0.215 | 0.269
B4 | < 1 | 0.319 | < 1e-07 | 151000 | 0.162 |  |  |  |  |  |  |  |  |  | 
B5 | 3090 | 0.245 | 0.000602 | 195000 |  |  |  |  |  |  |  |  | 0.125 |  | 
B6 | < 1 | 0.335 | < 1e-07 | 69100 | 0.103 | 0.222 | 0.165 | 0.146 | 0.191 | 0.255 | 0.124 | 0.126 | 0.131 |  | 0.232
B7 | < 1 | 0.272 | < 1e-07 | 48500 | 0.0818 | 0.0744 | 0.0857 | 0.0926 | 0.111 | 0.157 |  | 0.132 |  | 0.13 | 0.27
